Patent US20050214312A1 (ANTIGENICS, published 2005)

Columns and labels:
[1] = molecular target: T1, recombinant human or murine heat shock protein 70 (hsp70) (human or murine); test: binding affinity for HSP70, binding inhibition assay
[2] = molecular target: T1, recombinant human or murine heat shock …; test: binding inhibition assay (Hill plot) against labeled reference hybrid antigen on hsp70

T1 sequence (A8K5I0 entry or part of it): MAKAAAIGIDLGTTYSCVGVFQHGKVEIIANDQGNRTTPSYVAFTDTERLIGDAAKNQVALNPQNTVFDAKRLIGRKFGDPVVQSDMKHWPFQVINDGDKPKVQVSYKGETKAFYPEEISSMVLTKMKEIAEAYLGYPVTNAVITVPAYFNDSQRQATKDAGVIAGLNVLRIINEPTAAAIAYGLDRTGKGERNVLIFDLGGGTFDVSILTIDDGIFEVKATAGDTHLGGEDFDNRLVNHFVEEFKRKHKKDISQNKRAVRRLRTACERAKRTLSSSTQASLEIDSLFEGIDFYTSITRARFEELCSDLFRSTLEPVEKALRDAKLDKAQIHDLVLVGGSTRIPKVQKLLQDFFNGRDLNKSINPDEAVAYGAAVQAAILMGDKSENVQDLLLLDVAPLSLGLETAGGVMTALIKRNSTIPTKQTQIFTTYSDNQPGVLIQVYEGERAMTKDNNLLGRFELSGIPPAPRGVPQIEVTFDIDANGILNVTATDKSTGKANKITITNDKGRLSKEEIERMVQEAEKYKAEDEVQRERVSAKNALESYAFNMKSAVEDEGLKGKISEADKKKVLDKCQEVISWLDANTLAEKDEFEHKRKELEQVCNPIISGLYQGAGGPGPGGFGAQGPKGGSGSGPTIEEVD

Row | Binder | Kd [1] [nM] | Kd [2] [nM]
1 | NLLRLTGWRKSIINFEKL | 800 | 800
2 | NLLRLTGWFRSIINFEKL | 1500 | –
3 | NLLRLTGWQLKSIINFEKL | 400 | –
4 | NLLRLTGWGSGSIINFEKL | 1600 | 1600
5 | NLLRLTGWFFRKSIINFEKL | 2200 | 2200
6 | NLLRLTGWAKVLSIINFEKL | 2000 | –
7 | SIINFEKL [SIINFEKL (ovalbumin amino acids 257-264)] | – | 235000
